Data reported in patent publication US20260227416A1 (published 2026).

Biological target: T1, CD20 on SU-DHL4 cells (UniProt P11836 1-297, limits assumed)
T1 sequence (looked up): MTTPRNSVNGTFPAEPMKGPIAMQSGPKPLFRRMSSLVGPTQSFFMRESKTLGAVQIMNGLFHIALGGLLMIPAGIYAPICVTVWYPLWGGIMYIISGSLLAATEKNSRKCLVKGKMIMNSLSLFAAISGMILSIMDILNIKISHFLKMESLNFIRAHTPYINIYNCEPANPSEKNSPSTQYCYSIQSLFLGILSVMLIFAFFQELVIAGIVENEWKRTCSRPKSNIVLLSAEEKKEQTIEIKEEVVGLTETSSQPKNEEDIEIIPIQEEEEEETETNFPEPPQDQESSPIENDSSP
Assay: cell-based or functional assay

B1: Rituximab chimeric antibody (antibody, human IgG1, kappa, V domains shown)
VH: VQLQQPGAELVKPGASVKMSCKASGYTFTSYNMHWVKQTPGRGLEWIGAIYPGNGDTSYNQKFKGKATLTADKSSSTAYMQLSSLTSEDSAVYYCARSTYYGGDWYFNVWGAGTTVTVSA
VL: QIVLSQSPAILSASPGEKVTMTCRASSSVSYIHWFQQKPGSSPKPWIYATSNLASGVPVRFSGSGSGTSYSLTISRVEAEDAATYYCQQWTSNPPTFGGGTKLEIKR
With B1 the “EC50 values of target cell killing (ADCC, SU-DHL4 target cells)” value was ~10 ng/mL.
